This note sets out measurements from the supplement of paper PMC5998384.

Data set [1] deals with HeLa Kyoto. Kind of data set: solubility in G1/S (NP-40 vs SDS abundance) (log2 ratio); higher = more soluble. The settings on record: cell cycle stage: G1/S.
For data set [2], the system named is HeLa Kyoto. As to the kind of experiment: melting temperature (median over replicates), in situ; higher = more thermally stable.
Data set [3] has as its system HeLa Kyoto. As to the kind of experiment: thermal stability score vs G1/S (z-score of summed log2 fold changes over temperatures); higher = more thermally stable than in G1/S.
For data set [4], the system named is HeLa Kyoto. Kind of data set: solubility change mitosis vs G1/S (difference of NP-40 vs SDS log2 ratios) (log2 ratio difference); higher = more soluble in mitosis.
Setting [5] is: cell cycle stage: early G1 (4.5 h after nocodazole release).
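Wherever melting temperature (median over replicates), in situ is given: HeLa Kyoto cells synchronized by double thymidine or nocodazole block, proteins quantified by TMT10plex mass spectrometry, three independent biological replicates.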
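Wherever solubility change mitosis vs G1/S (difference of NP-40 vs SDS log2 ratios) is given: synchronized HeLa Kyoto cells (double thymidine block for G1/S, nocodazole release for mitosis), protein amounts in NP-40 versus SDS lysates quantified by mass spectrometry, three biological replicates.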
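Wherever solubility in G1/S (NP-40 vs SDS abundance) is given: HeLa Kyoto cells arrested at G1/S by double thymidine block, proteins quantified by TMT10plex mass spectrometry in mild NP-40 versus SDS extracts, three biological replicates.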
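Wherever thermal stability score vs G1/S (z-score of summed log2 fold changes over temperatures) is given: synchronized HeLa Kyoto cells, proteins quantified by TMT10plex mass spectrometry, three biological replicates, mitosis taken 0.5 h after nocodazole release, G1/S directly after double thymidine block.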

Turning to “MASSEQAEQPSQPSSTPGSENVLPREPLIATAVKFLQNSRVRQSPLATRRAFLKKKGLTDEEIDMAFQQSGTAADEPSSLGPATQVVPVQPPHLISQPYSPAGSRWRDYGALAIIMAGIAFGFHQLYKKYLLPLILGGREDRKQLERMEAGLSELSGSVAQTVTQLQTTLASVQELLIQQQQKIQELAHELAAAKATTSTNWILESQNINELKSEINSLKGLLLNRRQFPPSPSAPKIPSWQIPVKSPSPSSPAAVNHHSSSDISPVSNESTSSSPGKEGHSPEGSTVTYHLLGPQEEGEGVVDVKGQVRMEVQGEEEKREDKEDEEDEEDDDVSHVDEEDCLGVQREDRRGGDGQINEQVEKLRRPEGASNESERD [PEX14]”, in the data set with HeLa Kyoto [1], the “solubility in G1/S (log2)” value is 0.332. The melting temperature came to 53.2 °C in the data set on HeLa Kyoto [2] (cell cycle stage: G1/S) and 53.6 °C with HeLa Kyoto [2] (cell cycle stage: mitosis). Moreover, the results for the thermal stability score with HeLa Kyoto [3] (setting [5]) and with HeLa Kyoto [3] (cell cycle stage: mitosis) were 0.978 and 1.36, respectively. Moreover, in the data set with HeLa Kyoto [4], the “solubility change mitosis (log2)” value came to 0.164.
As to “MASTTSTKKMMEEATCSICLSLMTNPVSINCGHSYCHLCITDFFKNPSQKQLRQETFCCPQCRAPFHMDSLRPNKQLGSLIEALKETDQEMSCEEHGEQFHLFCEDEGQLICWRCERAPQHKGHTTALVEDVCQGYKEKLQKAVTKLKQLEDRCTEQKLSTAMRITKWKEKVQIQRQKIRSDFKNLQCFLHEEEKSYLWRLEKEEQQTLSRLRDYEAGLGLKSNELKSHILELEEKCQGSAQKLLQNVNDTLSRSWAVKLETSEAVSLELHTMCNVSKLYFDVKKMLRSHQVSVTLDPDTAHHELILSEDRRQVTRGYTQENQDTSSRRFTAFPCVLGCEGFTSGRRYFEVDVGEGTGWDLGVCMENVQRGTGMKQEPQSGFWTLRLCKKKGYVALTSPPTSLHLHEQPLLVGIFLDYEAGVVSFYNGNTGCHIFTFPKASFSDTLRPYFQVYQYSPLFLPPPGD [TRIM38]”, the “solubility in G1/S (log2)” value with HeLa Kyoto [1] was -0.661. Further, the melting temperature in the data set on HeLa Kyoto [2] (cell cycle stage: mitosis) was 48.8 °C. Moreover, the thermal stability score with HeLa Kyoto [3] (setting [5]) was -0.0637; with HeLa Kyoto [3] (cell cycle stage: mitosis), -0.487. For the same sequence, in the data set on HeLa Kyoto [4], the “solubility change mitosis (log2)” value turned out to be 0.155.
In the case of “MASVAAARAVPVGSGLRGLQRTLPLVVILGATGTGKSTLALQLGQRLGGEIVSADSMQVYEGLDIITNKVSAQEQRICRHHMISFVDPLVTNYTVVDFRNRATALIEDIFARDKIPIVVGGTNYYIESLLWKVLVNTKPQEMGTEKVIDRKVELEKEDGLVLHKRLSQVDPEMAAKLHPHDKRKVARSLQVFEETGISHSEFLHRQHTEEGGGPLGGPLKFSNPCILWLHADQAVLDERLDKRVDDMLAAGLLEELRDFHRRYNQKNVSENSQDYQHGIFQSIGFKEFHEYLITEGKCTLETSNQLLKKGIEALKQVTKRYARKQNRWVKNRFLSRPGPIVPPVYGLEVSDVSKWEESVLEPALEIVQSFIQGHKPTATPIKMPYNEAENKRSYHLCDLCDRIIIGDREWAAHIKSKSHLNQLKKRRRLDSDAVNTIESQSVSPDHNKEPKEKGSPGQNDQELKCSV [TRIT1]”, the “solubility in G1/S (log2)” value in the data set on HeLa Kyoto [1] was found to be 0.0861. Moreover, the melting temperature in the data set on HeLa Kyoto [2] (cell cycle stage: G1/S) was determined as 53.3 °C; in the data set with HeLa Kyoto [2] (cell cycle stage: mitosis), 49.1 °C. The thermal stability score in the data set with HeLa Kyoto [3] (setting [5]) is -0.00673; in the data set on HeLa Kyoto [3] (cell cycle stage: mitosis) it was 0.208. In addition, the “solubility change mitosis (log2)” value with HeLa Kyoto [4] was -0.137.
On to “MASVAVDPQPSVVTRVVNLPLVSSTYDLMSSAYLSTKDQYPYLKSVCEMAENGVKTITSVAMTSALPIIQKLEPQIAVANTYACKGLDRIEERLPILNQPSTQIVANAKGAVTGAKDAVTTTVTGAKDSVASTITGVMDKTKGAVTGSVEKTKSVVSGSINTVLGSRMMQLVSSGVENALTKSELLVEQYLPLTEEELEKEAKKVEGFDLVQKPSYYVRLGSLSTKLHSRAYQQALSRVKEAKQKSQQTISQLHSTVHLIEFARKNVYSANQKIQDAQDKLYLSWVEWKRSIGYDDTDESHCAEHIESRTLAIARNLTQQLQTTCHTLLSNIQGVPQNIQDQAKHMGVMAGDIYSVFRNAASFKEVSDSLLTSSKGQLQKMKESLDDVMDYLVNNTPLNWLVGPFYPQLTESQNAQDQGAEMDKSSQETQRSEHKTH [PLIN2]”, for which the “solubility in G1/S (log2)” value with HeLa Kyoto [1] turned out to be 0.307. Moreover, the melting temperature in the data set on HeLa Kyoto [2] (cell cycle stage: G1/S) came out at 53.2 °C; with HeLa Kyoto [2] (cell cycle stage: mitosis) it was 53.3 °C. For the same sequence, the thermal stability score came to 0.285 in the data set on HeLa Kyoto [3] (setting [5]) and 0.347 in the data set with HeLa Kyoto [3] (cell cycle stage: mitosis). Also, the “solubility change mitosis (log2)” value with HeLa Kyoto [4] came to 0.0233.
With “MASVVLPSGSQCAAAAAAAAPPGLRLRLLLLLFSAAALIPTGDGQNLFTKDVTVIEGEVATISCQVNKSDDSVIQLLNPNRQTIYFRDFRPLKDSRFQLLNFSSSELKVSLTNVSISDEGRYFCQLYTDPPQESYTTITVLVPPRNLMIDIQKDTAVEGEEIEVNCTAMASKPATTIRWFKGNTELKGKSEVEEWSDMYTVTSQLMLKVHKEDDGVPVICQVEHPAVTGNLQTQRYLEVQYKPQVHIQMTYPLQGLTREGDALELTCEAIGKPQPVMVTWVRVDDEMPQHAVLSGPNLFINNLNKTDNGTYRCEASNIVGKAHSDYMLYVYDPPTTIPPPTTTTTTTTTTTTTILTIITDSRAGEEGSIRAVDHAVIGGVVAVVVFAMLCLLIILGRYFARHKGTYFTHEAKGADDAADADTAIINAEGGQNNSEEKKEYFI [CADM1]”, the “solubility in G1/S (log2)” value in the data set with HeLa Kyoto [1] is -0.145. For the same sequence, the figures for the melting temperature with HeLa Kyoto [2] (cell cycle stage: G1/S) and in the data set with HeLa Kyoto [2] (cell cycle stage: mitosis) were 61.3 °C and 58.9 °C, respectively. In addition, the thermal stability score came to 0.625 in the data set on HeLa Kyoto [3] (setting [5]) and 0.622 in the data set on HeLa Kyoto [3] (cell cycle stage: mitosis). Further, the “solubility change mitosis (log2)” value with HeLa Kyoto [4] is -0.0334.
On to “MASVWQRLGFYASLLKRQLNGGPDVIKWERRVIPGCTRSIYSATGKWTKEYTLQTRKDVEKWWHQRIKEQASKISEADKSKPKFYVLSMFPYPSGKLHMGHVRVYTISDTIARFQKMRGMQVINPMGWDAFGLPAENAAVERNLHPQSWTQSNIKHMRKQLDRLGLCFSWDREITTCLPDYYKWTQYLFIKLYEAGLAYQKEALVNWDPVDQTVLANEQVDEHGCSWRSGAKVEQKYLRQWFIKTTAYAKAMQDALADLPEWYGIKGMQAHWIGDCVGCHLDFTLKVHGQATGEKLTAYTATPEAIYGTSHVAISPSHRLLHGHSSLKEALRMALVPGKDCLTPVMAVNMLTQQEVPVVILAKADLEGSLDSKIGIPSTSSEDTILAQTLGLAYSEVIETLPDGTERLSSSAEFTGMTRQDAFLALTQKARGKRVGGDVTSDKLKDWLISRQRYWGTPIPIVHCPVCGPTPVPLEDLPVTLPNIASFTGKGGPPLAMASEWVNCSCPRCKGAAKRETDTMDTFVDSAWYYFRYTDPHNPHSPFNTAVADYWMPVDLYIGGKEHAVMHLFYARFFSHFCHDQKMVKHREPFHKLLAQGLIKGQTFRLPSGQYLQREEVDLTGSVPVHAKTKEKLEVTWEKMSKSKHNGVDPEEVVEQYGIDTIRLYILFAAPPEKDILWDVKTDALPGVLRWQQRLWTLTTRFIEARASGKSPQPQLLSNKEKAEARKLWEYKNSVISQVTTHFTEDFSLNSAISQLMGLSNALSQASQSVILHSPEFEDALCALMVMAAPLAPHVTSEIWAGLALVPRKLCAHYTWDASVLLQAWPAVDPEFLQQPEVVQMAVLINNKACGKIPVPQQVARDQDKVHEFVLQSELGVRLLQGRSIKKSFLSPRTALINFLVQD [LARS2]”, for which the “solubility in G1/S (log2)” value in the data set on HeLa Kyoto [1] is -0.045. The figures for the melting temperature with HeLa Kyoto [2] (cell cycle stage: G1/S) and in the data set on HeLa Kyoto [2] (cell cycle stage: mitosis) were 49.7 °C and 49.9 °C, respectively. For the same sequence, the results for the thermal stability score in the data set on HeLa Kyoto [3] (setting [5]) and with HeLa Kyoto [3] (cell cycle stage: mitosis) were 0.0823 and 0.851, respectively. Moreover, the “solubility change mitosis (log2)” value in the data set on HeLa Kyoto [4] was -0.0972.
As for “MASYPYRQGCPGAAGQAPGAPPGSYYPGPPNSGGQYGSGLPPGGGYGGPAPGGPYGPPAGGGPYGHPNPGMFPSGTPGGPYGGAAPGGPYGQPPPSSYGAQQPGLYGQGGAPPNVDPEAYSWFQSVDSDHSGYISMKELKQALVNCNWSSFNDETCLMMINMFDKTKSGRIDVYGFSALWKFIQQWKNLFQQYDRDRSGSISYTELQQALSQMGYNLSPQFTQLLVSRYCPRSANPAMQLDRFIQVCTQLQVLTEAFREKDTAVQGNIRLSFEDFVTMTASRML [PEF1]”, the “solubility in G1/S (log2)” value in the data set on HeLa Kyoto [1] is -0.126. The figures for the melting temperature with HeLa Kyoto [2] (cell cycle stage: G1/S) and in the data set with HeLa Kyoto [2] (cell cycle stage: mitosis) were 53.5 °C and 53.2 °C, respectively. Besides, the thermal stability score is -1.46 with HeLa Kyoto [3] (setting [5]) and -1.2 in the data set with HeLa Kyoto [3] (cell cycle stage: mitosis). Besides, the “solubility change mitosis (log2)” value in the data set with HeLa Kyoto [4] turned out to be 0.345.
For “MATAAYEQLKLHITPEKFYVEACDDGADDVLTIDRVSTEVTLAVKKDVPPSAVTRPIFGILGTIHLVAGNYLIVITKKIKVGEFFSHVVWKATDFDVLSYKKTMLHLTDIQLQDNKTFLAMLNHVLNVDGFYFSTTYDLTHTLQRLSNTSPEFQEMSLLERADQRFVWNGHLLRELSAQPEVHRFALPVLHGFITMHSCSINGKYFDWILISRRSCFRAGVRYYVRGIDSEGHAANFVETEQIVHYNGSKASFVQTRGSIPVFWSQRPNLKYKPLPQISKVANHMDGFQRHFDSQVIIYGKQVIINLINQKGSEKPLEQTFATMVSSLGSGMMRYIAFDFHKECKNMRWDRLSILLDQVAEMQDELSYFLVDSAGQVVANQEGVFRSNCMDCLDRTNVIQSLLARRSLQAQLQRLGVLHVGQKLEEQDEFEKIYKNAWADNANACAKQYAGTGALKTDFTRTGKRTHLGLIMDGWNSMIRYYKNNFSDGFRQDSIDLFLGNYSVDELESHSPLSVPRDWKFLALPIIMVVAFSMCIICLLMAGDTWTETLAYVLFWGVASIGTFFIILYNGKDFVDAPRLVQKEKID [SACM1L]”, the “solubility in G1/S (log2)” value in the data set with HeLa Kyoto [1] was -0.172. In addition, the melting temperature with HeLa Kyoto [2] (cell cycle stage: G1/S) and in the data set with HeLa Kyoto [2] (cell cycle stage: mitosis) was 50.7 °C throughout. The values for the thermal stability score in the data set on HeLa Kyoto [3] (setting [5]) and in the data set on HeLa Kyoto [3] (cell cycle stage: mitosis) were 1.77 and 2.34, respectively. In the data set with HeLa Kyoto [4], the “solubility change mitosis (log2)” value was -0.111.
